Values of other authors in PMC4771075.

Biological target: kappa opioid receptor (Rattus norvegicus) (UniProt P34975)
Assay: radioligand

Chain of kappa opioid receptor (Rattus norvegicus) (P34975 whole entry): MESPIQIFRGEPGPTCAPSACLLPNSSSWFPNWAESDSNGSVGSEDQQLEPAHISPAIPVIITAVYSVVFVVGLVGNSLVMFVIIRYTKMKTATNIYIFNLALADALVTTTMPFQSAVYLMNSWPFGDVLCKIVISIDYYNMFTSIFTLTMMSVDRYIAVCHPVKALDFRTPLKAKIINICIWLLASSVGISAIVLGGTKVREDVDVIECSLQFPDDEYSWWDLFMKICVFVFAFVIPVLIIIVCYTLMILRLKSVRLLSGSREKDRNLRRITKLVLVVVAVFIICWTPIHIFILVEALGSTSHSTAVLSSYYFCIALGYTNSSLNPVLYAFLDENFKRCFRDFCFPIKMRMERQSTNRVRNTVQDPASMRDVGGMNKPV

Ki: 570 pM
Substance: Dyn A(1-11)NH2 1-11 (from UniProt P01213)
